Test results from the RNAGym collection of RNA variant scans (doi:10.7554/elife.80360).

B1: CPEB3 Ribozyme (parent)
chain: GGGGGCCACAGCAGAAGCGUUCACGUCGCGGCCCCUGUCAGAUUCUGGUGAAUCUGCGAAUUCUGCUGU

Variants of: B1
Assay: self-cleavage, relative activity (ratio to wild type); higher = more cleavage; co-transcriptional

Variant | self-cleavage
GGGGGCCACAGCAGAGGCGUUCACGUCGCGGCCCCUGUCAGAUUCUGGUGAAUCUUCGAAUUCUGCUGU [A16G G56U] | 0.634
GGGGGCCACAGCAGAGGCGUUCACGUCGCGGCCCCUGUCAGAUUCAGGUGAAUCUGCGAAUUCUGCUGU [A16G U46A] | 0.948
GGGGGCCACAGCAGAGGCGUUCACGUCGGGGCCCCUGUCAGAUUCUGGUGAAUCUGCGAAUUCUGCUGU [A16G C29G] | 0.309
GGGGGCCACAGCAGAGGCGUUCACGCCGCGGCCCCUGUCAGAUUCUGGUGAAUCUGCGAAUUCUGCUGU [A16G U26C] | 0.555
GGGGGCCACAGCAGAUGCGUUCACGUCGCGGCCCCUGUCAGAUUCUGGUGAAUCUGCGAAUUUUGCUGU [A16U C63U] | 0.732
GGGGGCCACAGCAGAUGCGUUCACGUCGCGGCCCCUGUCAGAUUCUGGUGAAUCUGCGAAUUAUGCUGU [A16U C63A] | 0.501
GGGGGCCACAGCAGAUGCGUUCACGUCGCGGCCCCUGUCAGAUUCUGGUGAUUCUGCGAAUUCUGCUGU [A16U A52U] | 0.801
GGGGGCCACAGCAGAUGCGUUCACGUCGCGGCCCCUGUCAGAUUCUGGUGACUCUGCGAAUUCUGCUGU [A16U A52C] | 0.856
GGGGGCCACAGCAGAGGCGUUCACGUCGCGGGCCCUGUCAGAUUCUGGUGAAUCUGCGAAUUCUGCUGU [A16G C32G] | 0.125
GGGGGCCACAGCAGAGGCGUUCACGUCGCGGACCCUGUCAGAUUCUGGUGAAUCUGCGAAUUCUGCUGU [A16G C32A] | 0.607
GGGGGCCACAGCAGAGGCGUUCACGUCGCGGCCCCUGUCAGAUUCUGGUGAAUGUGCGAAUUCUGCUGU [A16G C54G] | 0.581
GGGGGCCACAGCAGAGGCGUUCACGUCGCGGCCCCUGUCAGAUUCUGGUGAAUAUGCGAAUUCUGCUGU [A16G C54A] | 0.413
GGGGGCCACAGCAGAGGCGUUCACGUCGCGGCCCCUGUCAGAUUCUGGAGAAUCUGCGAAUUCUGCUGU [A16G U49A] | 0.598
GGGGGCCACAGCAGAGGCGUUCACGUCGCGGCCCCUGUCAGAUUCUGGCGAAUCUGCGAAUUCUGCUGU [A16G U49C] | 0.854
GGGGGCCACAGCAGAUGCGUUCAUGUCGCGGCCCCUGUCAGAUUCUGGUGAAUCUGCGAAUUCUGCUGU [A16U C24U] | 0.337
GGGGGCCACAGCAGAUGCGUUCAGGUCGCGGCCCCUGUCAGAUUCUGGUGAAUCUGCGAAUUCUGCUGU [A16U C24G] | 0.141
GGGGGCCACAGCAGAGGCGUUCACGUCGCGGCCCCUGUCAGAUUCUGGUCAAUCUGCGAAUUCUGCUGU [A16G G50C] | 0.896
GGGGGCCACAGCAGAGGCGUUCACGUCGCGGCCCCUGUCAGAUUCUGGUAAAUCUGCGAAUUCUGCUGU [A16G G50A] | 0.915
GGGGGCCACAGCAGAGGCGUUCACGUCGCGGCCCCUGUCAGAUUCUGGUGAAUCUGCGAAUUCUGCAGU [A16G U67A] | 0.907
GGGGGCCACAGCAGAUGCGUUCACGUCGCGGCCCCUGUCAGAUUCUGGUGAAUGUGCGAAUUCUGCUGU [A16U C54G] | 0.662
GGGGGCCACAGCAGAUGCGUUCACGUCGCGGCCCCUGUCAGAUUCUGGUGAAUUUGCGAAUUCUGCUGU [A16U C54U] | 0.895
GGGGGCCACAGCAGAUGCGUUCACGUCGCGGCCCCUGUCAGAUUCUGGUGAAUAUGCGAAUUCUGCUGU [A16U C54A] | 0.637
GGGGGCCACAGCAGAGGCGUUCACGUCACGGCCCCUGUCAGAUUCUGGUGAAUCUGCGAAUUCUGCUGU [A16G G28A] | 0.215
GGGGGCCACAGCAGAGGCGUUCACGUCUCGGCCCCUGUCAGAUUCUGGUGAAUCUGCGAAUUCUGCUGU [A16G G28U] | 0.188
GGGGGCCACAGCAGAGGCGUUCACGUCGCGGCCCCUGUCAGAUUCUGGUGAAUCUGCGAAUUCUGCUAU [A16G G68A] | 1.02
GGGGGCCACAGCAGAGGCGUUCACGUCGCGGCCCAUGUCAGAUUCUGGUGAAUCUGCGAAUUCUGCUGU [A16G C35A] | 0.179

Variant | self-cleavage
GGGGGCCACAGCAGAGGCGUUCACGUCGCGGCCCGUGUCAGAUUCUGGUGAAUCUGCGAAUUCUGCUGU [A16G C35G] | 0.373
GGGGGCCACAGCAGAGGCCUUCACGUCGCGGCCCCUGUCAGAUUCUGGUGAAUCUGCGAAUUCUGCUGU [A16G G19C] | 0.158
GGGGGCCACAGCAGAGGCUUUCACGUCGCGGCCCCUGUCAGAUUCUGGUGAAUCUGCGAAUUCUGCUGU [A16G G19U] | 0.184
GGGGGCCACAGCAGAGGCAUUCACGUCGCGGCCCCUGUCAGAUUCUGGUGAAUCUGCGAAUUCUGCUGU [A16G G19A] | 0.163
GGGGGCCACAGCAGAGGCGUUCACGUCGCGGCCCCUGUCAGAUUCUGGUGAAUCUGCAAAUUCUGCUGU [A16G G58A] | 0.932
GGGGGCCACAGCAGAGGCGUUCACGUCGCGGCCCCUGUCAGAUUCUGGUGAAUCUGCUAAUUCUGCUGU [A16G G58U] | 0.962
GGGGGCCACAGCAGAUGCGUUCACGUCGUGGCCCCUGUCAGAUUCUGGUGAAUCUGCGAAUUCUGCUGU [A16U C29U] | 0.117
GGGGGCCACAGCAGAGGCGUUCACGUCGCGGCCCCUGUCAGAUUCUGGUGAAUCUGCGAAUGCUGCUGU [A16G U62G] | 0.593
GGGGGCCACAGCAGAUGCGUUCACGUAGCGGCCCCUGUCAGAUUCUGGUGAAUCUGCGAAUUCUGCUGU [A16U C27A] | 0.205
GGGGGCCACAGCAGAUGCGUUCACGUGGCGGCCCCUGUCAGAUUCUGGUGAAUCUGCGAAUUCUGCUGU [A16U C27G] | 0.115
GGGGGCCACAGCAGAUGCGUUCACGUUGCGGCCCCUGUCAGAUUCUGGUGAAUCUGCGAAUUCUGCUGU [A16U C27U] | 0.125
GGGGGCCACAGCAGAGGCGUUCACGUCGCGGCCCCUGUCAGAUUCUGGUGAAUCGGCGAAUUCUGCUGU [A16G U55G] | 0.67
GGGGGCCACAGCAGAGGCGUUCACGUCGCGGCCCCUGUCAGAUUCUGGUGAAUCAGCGAAUUCUGCUGU [A16G U55A] | 0.659
GGGGGCCACAGCAGAUGCGUUCACGUCGCGGCCCCUGUCUGAUUCUGGUGAAUCUGCGAAUUCUGCUGU [A16U A40U] | 0.415
GGGGGCCACAGCAGAUGCGUUCACGUCGCGGCCCCUGUCCGAUUCUGGUGAAUCUGCGAAUUCUGCUGU [A16U A40C] | 0.267
GGGGGCCACAGCAGAGGCGUUCACGUCGCGGCCCCUGUCAGAUUCUGGUGAAUCUGCGAAUUCCGCUGU [A16G U64C] | 0.513
GGGGGCCACAGCAGAGGCGUUCACGUCGCGGCCCCUGUCAGAUUCUGGUGAAUCUGCGAAUUCUACUGU [A16G G65A] | 0.622
GGGGGCCACAGCAGAGGCGUUCACGUCGCGGCCCCUGUCAGAUUCUGGUGAAUCUGCGAAUUCUUCUGU [A16G G65U] | 0.571
GGGGGCCACAGCAGAUCCGUUCACGUCGCGGCCCCUGUCAGAUUCUGGUGAAUCUGCGAAUUCUGCUGU [A16U G17C] | 0.193
GGGGGCCACAGCAGAGGCGUUCACGUCGCGGCACCUGUCAGAUUCUGGUGAAUCUGCGAAUUCUGCUGU [A16G C33A] | 0.795
GGGGGCCACAGCAGAUGGGUUCACGUCGCGGCCCCUGUCAGAUUCUGGUGAAUCUGCGAAUUCUGCUGU [A16U C18G] | 0.167
GGGGGCCACAGCAGAUGUGUUCACGUCGCGGCCCCUGUCAGAUUCUGGUGAAUCUGCGAAUUCUGCUGU [A16U C18U] | 0.301
GGGGGCCACAGCAGAGGCGUUCACGUUGCGGCCCCUGUCAGAUUCUGGUGAAUCUGCGAAUUCUGCUGU [A16G C27U] | 0.228
GGGGGCCACAGCAGAUGCGUUCCCGUCGCGGCCCCUGUCAGAUUCUGGUGAAUCUGCGAAUUCUGCUGU [A16U A23C] | 0.701
GGGGGCCACAGCAGAUGCGUUCACGUCGCGGCCCCUGUCAGAUUCUGGUGAAUCUGCGGAUUCUGCUGU [A16U A59G] | 0.909
GGGGGCCACAGCAGAUGCGUUCACGUCGCGGCCCCUGUCAGAUUCUGGUGAAUCUGCGCAUUCUGCUGU [A16U A59C] | 0.427

Variant | self-cleavage
GGGGGCCACAGCAGAGGCGUUCACGUCGCGGCCCCUGUCAGAUUCUGGUGAAUCUGCGAAUUUUGCUGU [A16G C63U] | 0.861
GGGGGCCACAGCAGAGGCGUUCACGUCGCGGCCCCUGUCAGAUUCUGGUGAAACUGCGAAUUCUGCUGU [A16G U53A] | 0.752
GGGGGCCACAGCAGAGGCGUUCACGUCGCGGCCCCUGUCAGAUUCUGGUGAAGCUGCGAAUUCUGCUGU [A16G U53G] | 0.784
GGGGGCCACAGCAGAUGCGUUCACGUCGCGGCCCCUGUCAGAUUCUGGUGCAUCUGCGAAUUCUGCUGU [A16U A51C] | 0.71
GGGGGCCACAGCAGAUGCGUUCACGUCGCGGCCCCUGUCAGAUUGUGGUGAAUCUGCGAAUUCUGCUGU [A16U C45G] | 0.839
GGGGGCCACAGCAGAUGCGUUCACGUCGCGGCCCCUGUCAGAUUUUGGUGAAUCUGCGAAUUCUGCUGU [A16U C45U] | 0.893
GGGGGCCACAGCAGAUGCGUUCACGUCGCGGCCCCUGUCAGAUUCUGGUGAAUCUGAGAAUUCUGCUGU [A16U C57A] | 0.293
GGGGGCCACAGCAGAGGCGUACACGUCGCGGCCCCUGUCAGAUUCUGGUGAAUCUGCGAAUUCUGCUGU [A16G U21A] | 0.92
GGGGGCCACAGCAGAGGCGUUCACGUCGCGGCCCCUGUCAAAUUCUGGUGAAUCUGCGAAUUCUGCUGU [A16G G41A] | 0.404
GGGGGCCACAGCAGAGGCGUUCACGUCGCGGCCCCUGUCAGAUCCUGGUGAAUCUGCGAAUUCUGCUGU [A16G U44C] | 0.734
GGGGGCCACAGCAGAGGCGUUCACGUCGCGGCCCCUGUCAGAUGCUGGUGAAUCUGCGAAUUCUGCUGU [A16G U44G] | 0.84
GGGGGCCACAGCAGAUGCCUUCACGUCGCGGCCCCUGUCAGAUUCUGGUGAAUCUGCGAAUUCUGCUGU [A16U G19C] | 0.112
GGGGGCCACAGCAGAGGCGUUCACGUCGCGGCCCCUGUCAGAUUCUCGUGAAUCUGCGAAUUCUGCUGU [A16G G47C] | 1.02
GGGGGCCACAGCAGAGGCGUUCACGUCGCGGCCCCUGUCAGAUUCUAGUGAAUCUGCGAAUUCUGCUGU [A16G G47A] | 0.933
GGGGGCCACAGCAGAGCCGUUCACGUCGCGGCCCCUGUCAGAUUCUGGUGAAUCUGCGAAUUCUGCUGU [A16G G17C] | 0.131
GGGGGCCACAGCAGAGGCGUUCACGUCGCGGCCCCAGUCAGAUUCUGGUGAAUCUGCGAAUUCUGCUGU [A16G U36A] | 0.179
GGGGGCCACAGCAGAGGCGUUCACGUCGCGGCCCCGGUCAGAUUCUGGUGAAUCUGCGAAUUCUGCUGU [A16G U36G] | 0.259
GGGGGCCACAGCAGAUGCGUUCACGUCGCGGCCCCUGUCAGUUUCUGGUGAAUCUGCGAAUUCUGCUGU [A16U A42U] | 0.82
GGGGGCCACAGCAGAGGCGUUCACGUCGCGGCCCCUGUCAGAGUCUGGUGAAUCUGCGAAUUCUGCUGU [A16G U43G] | 0.708
GGGGGCCACAGCAGAGGCGUUCACGUCGCGGCCCCUGUCAGAUUCUGGUGAAUCUGCGAAUUCUGAUGU [A16G C66A] | 0.579
GGGGGCCACAGCAGAGGCGUUCACGUCGCGGCCCCUAUCAGAUUCUGGUGAAUCUGCGAAUUCUGCUGU [A16G G37A] | 0.13
GGGGGCCACAGCAGAUGCGUUCACGUCGCGGACCCUGUCAGAUUCUGGUGAAUCUGCGAAUUCUGCUGU [A16U C32A] | 0.491
GGGGGCCACAGCAGAGGCGUUCACGUCGCGGCCCCUGGCAGAUUCUGGUGAAUCUGCGAAUUCUGCUGU [A16G U38G] | 0.143
GGGGGCCACAGCAGAUGCGUUGACGUCGCGGCCCCUGUCAGAUUCUGGUGAAUCUGCGAAUUCUGCUGU [A16U C22G] | 0.161
GGGGGCCACAGCAGAUGCGUUUACGUCGCGGCCCCUGUCAGAUUCUGGUGAAUCUGCGAAUUCUGCUGU [A16U C22U] | 0.168
GGGGGCCACAGCAGAGGCGUUCACGUCGCGGCCCCUGUCAGAUUCUGGUGAAUCUGCGAAUUCUGCUGC [A16G U69C] | 1.08
